In patent US20160304580A1 (ALLIGATOR BIOSCIENCE, published 2016):

How the values were obtained:
[1] = target: T1, human CTLA4-Fc (Fitzgerald #30R-CD152) (human, UniProt P16410 38-152, biotinylated in the inhibition ELISAs (sites not given)); assay: binding ELISA on coated CTLA4-Fc; against wild type and H79A; upper end tied to 1040 by Table 7
T1 construct: Bought reagent; Used plain (coated or immobilised) and biotinylated (in solution); also called biotinylated-CTLA4; human CTLA-4 (Fitzgerald); not shown: Fc of the bought fusion protein
T1 sequence: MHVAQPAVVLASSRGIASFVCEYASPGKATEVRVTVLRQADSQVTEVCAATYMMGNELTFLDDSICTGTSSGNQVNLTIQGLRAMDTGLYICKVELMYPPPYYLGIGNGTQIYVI
Experimental: (§1) Similar to the protocol described in Example 2, 96-well flat bottom high binding plates (Greiner #655074) were coated with either CTLA4-Fc (Fitzgerald #30R-CD152) or CD28-Fc (kindly provided by Simon Davis, Oxford University) by incubating overnight at 4° C. The plates were washed (Wash buffer: PBS+0.05% Tween 20 (PBST) Medicago #09-9410-100) and then blocked in PBST+3% BSA (Merck, #1.12018.0100). The plates were washed again and sample or controls (serially diluted ⅓ from 50 000-0001 nM) were added to the wells. The samples were incubated for 1 h at room temperature and then washed. Detection antibody, goat-anti-human IgG Fcγ-HRP (Jackson, #109-035-098) was added and the plates were subsequently developed using SuperSignal Pico Chemiluminescent substrate (Thermo #37069) and detected with an Envision reader (Perkin Elmer).
(§2) Binding to CD28 was too low for detection by this assay (data not shown).

[2] = target: T1, human CTLA4-Fc (Fitzgerald #30R-CD152); assay: binding ELISA: CTLA4-Fc coated on the plate, sample serially diluted, detection with goat anti-human IgG Fcγ-HRP, chemiluminescence, data normalised to %
Experimental: as §1, §2

[3] = target: T1, human CTLA4-Fc (Fitzgerald #30R-CD152); assay: binding ELISA on coated CTLA4-Fc; against wild type and H79A; lower end tied to 1042 by Table 7
Experimental: as §1, §2

[4] = target: T1, human CTLA4-Fc (Fitzgerald #30R-CD152); assay: SPR (Biacore); ratio [Kd for CD28] / [Kd for CTLA-4] compared with wild type
Experimental: (§3) The phage clones selected from Example 1 were re-cloned according to standard protocols into a fusion protein-format, with each clone fused to γ2/γ4 Fc. The fusion proteins were expressed in HEK293 cells. Supernatants culure of the cells were collected and the expressed fusion proteins were assayed using both ELISA and Biacore™ according to the methods set out below.
Either CTLA4-Fc (Fitzgerald #30R-CD152) or CD28-Fc (R&D systems 342-CD) was immobilized to the Biacore™ senshorship, CM5, using conventional amine coupling. The CD86 mutant molecules and controls (serially diluted ½ 100-1.5 nM) were analyzed for binding in HBs-P (GE, BR-1003-69) at a flow rate […]. The association was followed for 3 minutes and the dissociation for 10 minutes. Regeneration was performed twice using 5 mM NaOH for 30 seconds. The kinetic parameters and the affinity constants were calculated using BIAevaluation 4.1 software.

[5] = target: T1, human CTLA4-Fc (Fitzgerald #30R-CD152); assay: ELISA; ratio [EC50 for CD28] / [EC50 for CTLA-4] compared with wild type
Experimental: as §3
as §1, with “96-well” for “Similar to the protocol described in Example 2, 96-well”, “(R&D systems 342-CD)” for “(kindly provided by Simon Davis, Oxford University)”, “⅕” for “⅓”, “200-0.001 μg/ml)” for “50 000-0001 nM)”, “Elmer). EC50 values were calculated for both CTLA4 and CD28. The binding ratio (EC50 binding ratio=[EC50 for CD28]÷[EC50 for CTLA-4]) was calculated for each polypeptide and is shown in Table 4.” for “Elmer).”

B1: CD86 mutant clone 1040 expressed as a gamma2/gamma4 fusion (Fc fusion)
chain: APLKIQAYFNETADLPCQFANSQNLSLSELVVFWQDQENLVLNEVYLGKERFDSVDSKYMGRTSFDSDSWTLRLHNLQIKDKGRYQCIIHHKKPTGMINIHQMNSELSVLA
notes: Purified on protein A; not shown: gamma2/gamma4 Fc
fold improvement of EC50 [1]: 2 to 67 fold | EC50 (read off the curve) [2]: ~8 ng/mL

B2: CD86 mutant clone 1042 expressed as a gamma2/gamma4 fusion (Fc fusion)
chain: APLKIQAYFNETADLPCQFANSQNLSLSELVVFWQDQENLVLNEVYLGKEIFDSVSSKYMGRTSFDSDSWTLRLHNLQIKDKGIYQCIIHHKKPSGMVKIHQMDSELSVLA
notes: as for B1
fold improvement of EC50 [3]: 2 to 67 fold

B3: CD86 mutant clone 904 fused to γ2/γ4 Fc (Fc fusion)
chain: LKIQAYFNETADLPCQFANSQNQSLSELIVFWQDQENLVLNEVYLGKERFDAVDSKYMGRTSFDSDSWTLRLHNLQIKDKGIYQCIIHHKKPSGMVKIHQMDSELSVLA
notes: not shown: γ2/γ4 Fc
fold of Kd binding ratio over wild type CD86 [4]: > 4 times

B4: CD86 mutant clone 907 fused to γ2/γ4 Fc (Fc fusion)
chain: LKIQAYFNETADLPCQFANSQNQSLSELVVFWQDQENLVLNEVYLGKEKFDSVHSKYMGRTSFDSDSWTLRLHNLQIKDKGLYQCIIHHKKPTGMIKIHEMNSELSVLA
notes: not shown: γ2/γ4 Fc
fold of EC50 binding ratio over wild-type CD86 [5]: ~10 times
